From patent US20030159166A1 (ORTHO MCNEIL PHARMACEUTICAL, published 2003) come the findings set out here.

For this experiment, the target named is T1, recombinant soluble HLA-DM (human, UniProt P28067 27-233; P28068 19-218).
T1 construct: extracellular domain; Expressed in Drosophila Schneider-2 cells, purified on Ni-NTA agarose and by gel filtration
Nature of the experiment: in vitro complex formation, isolation on Ni-NTA agarose by the His tag of DM.

B1: DO-Fc fusion protein (extracellular domains of DOA and DOB fused to the Fc domain of human IgG1) (Fc fusion)
MHC II alpha: TKADHMGSYGPAFYQSYGASGQFTHEFDEEQLFSVDLKKSEAVWRLPEFGDFARFDPQGGLAGIAAIKAHLDILVERSNRSRAINVPPRVTVLPKSRVELGQPNILICIVDNIFPPVINITWLRNGQTVTEGVAQTSFYSQPDHLFRKFHYLPFVPSAEDVYDCQVEHWGLDAPLLRHWELQVPIPPPDAME
MHC II beta: TDSPEDFVIQAKADCYFTNGTEKVQFVVRFIFNLEEYVRFDSDVGMFVALTKLGQPDAEQWNSRLDLLERSRQAVDGVCRHNYRLGAPFTVGRKVQPEVTVYPERTPLLHQHNLLHCSVTGFYPGDIKIKWFLNGQEERAGVMSTGPIRNGDWTFQTVVMLEMTPELGHVYTCLVDHSSLLSPVSVEWRAQSEYSWRK
notes: extracellular domain; Expressed in Drosophila Schneider-2 cells, purified on protein A sepharose; also called HLA-DO; not shown: human IgG1 Fc domain
Consider B1, for which the binding result is “binds”.
